Our source for the Kd values is publication PMC7859323.

“And” between values parts separate entries of the source, which are not always exact repeats. Equal values may be shown once.

The target in the test is Gla domainless factor VIIa (human) (UniProt P08709). Put plainly: titration of enzyme activity (rate of FX activation by des Gla-FVIIa).

A word on the Kd: it is the free concentration of one partner at which half of the binding sites on the other are occupied at equilibrium, for simple one-to-one binding. Low values mean higher affinity, high ones lower affinity.

Chain of UniProt P08709 (P08709 21-466, chain 1 of 2): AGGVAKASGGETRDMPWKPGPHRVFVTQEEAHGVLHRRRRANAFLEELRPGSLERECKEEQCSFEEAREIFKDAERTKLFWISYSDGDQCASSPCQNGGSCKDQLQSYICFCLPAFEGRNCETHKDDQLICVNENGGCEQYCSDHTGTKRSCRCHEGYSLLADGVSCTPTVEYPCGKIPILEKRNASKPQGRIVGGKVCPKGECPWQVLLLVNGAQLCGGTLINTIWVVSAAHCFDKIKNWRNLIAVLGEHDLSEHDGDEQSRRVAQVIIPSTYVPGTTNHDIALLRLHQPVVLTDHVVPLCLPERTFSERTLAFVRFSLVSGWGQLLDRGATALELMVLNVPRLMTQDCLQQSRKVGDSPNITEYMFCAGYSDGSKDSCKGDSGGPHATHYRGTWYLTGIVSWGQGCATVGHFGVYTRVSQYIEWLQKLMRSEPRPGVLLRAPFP
Chain of UniProt P08709 (P08709 213-466, chain 2 of 2): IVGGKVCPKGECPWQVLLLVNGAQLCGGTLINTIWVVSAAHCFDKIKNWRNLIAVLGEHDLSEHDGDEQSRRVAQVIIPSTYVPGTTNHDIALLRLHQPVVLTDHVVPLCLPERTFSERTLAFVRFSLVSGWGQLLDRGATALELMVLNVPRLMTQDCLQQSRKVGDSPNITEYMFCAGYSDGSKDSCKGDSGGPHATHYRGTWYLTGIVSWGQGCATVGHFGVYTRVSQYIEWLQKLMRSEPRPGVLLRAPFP

For “recombinant soluble tissue factor (from UniProt P13726 33-251) (domain or fragment)”, the Kd is 5 nM and 2.7 nM.
